Key:
[1] = biological target: T1, Ino2pMut;Ino4pDBD WT (Saccharomyces cerevisiae;Saccharomyces …, UniProt P26798;P13902 230-304;40-117, H241A;E245A;R249A;R273A|); assay: ITC; 10 C; 20 mM Tris-HCl pH 8.0, 100 mM NaCl (buffer B); EMSA 1.5 uM DNA, 1.5-150 uM protein, 1 h on ice; ITC at 10 C, 400 uM DNA into 20 uM protein; conditions: protein: recombinant;recombinant; tags: N-terminal His6;none (with His-Ino2p); copies: 1;1; 14 bp with 5' overhang 1 nt at each end
T1 sequence 1: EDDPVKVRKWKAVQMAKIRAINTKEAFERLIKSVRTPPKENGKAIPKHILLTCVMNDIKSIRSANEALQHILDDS
T1 sequence 2: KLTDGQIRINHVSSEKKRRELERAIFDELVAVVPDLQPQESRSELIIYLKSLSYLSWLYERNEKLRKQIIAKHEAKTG

[2] = biological target: T2, Ino2pDBD WT;Ino4pDBD WT (Saccharomyces cerevisiae (genomic DNA …, UniProt P26798;P13902 230-304;40-117, |)); assay: as above; conditions: protein: recombinant;recombinant; tags: N-terminal His6;none (with His-Ino2p); copies: 1;1; 14 bp with 5' overhang 1 nt at each end
T2 sequence 1: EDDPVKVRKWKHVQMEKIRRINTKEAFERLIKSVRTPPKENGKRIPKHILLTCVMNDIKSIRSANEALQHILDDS
T2 sequence 2: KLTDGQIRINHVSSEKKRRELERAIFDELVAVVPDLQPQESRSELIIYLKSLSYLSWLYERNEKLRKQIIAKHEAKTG

[3] = biological target: T3, Ino2pDBD WT;Ino4pMut (Saccharomyces cerevisiae (genomic DNA …, UniProt P26798;P13902 230-304;40-117, |H50A;E54A;R57A;R58A)); assay: as above; conditions: protein: recombinant;recombinant; tags: N-terminal His6;none; copies: 1;1; 14 bp with 5' overhang 1 nt at each end
T3 sequence 1: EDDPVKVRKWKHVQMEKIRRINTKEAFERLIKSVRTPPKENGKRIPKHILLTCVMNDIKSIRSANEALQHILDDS
T3 sequence 2: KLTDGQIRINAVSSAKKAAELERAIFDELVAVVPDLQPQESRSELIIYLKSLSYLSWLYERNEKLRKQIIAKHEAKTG

[4] = biological target: T2, Ino2pDBD WT;Ino4pDBD WT; assay: EMSA; 20 mM Tris-HCl pH 8.0, 100 mM NaCl (buffer B); EMSA 1.5 uM DNA, 1.5-150 uM protein, 1 h on ice; ITC at 10 C, 400 uM DNA into 20 uM protein; conditions: protein: recombinant;recombinant, tags: N-terminal His6;none (with His-Ino2p), copies: 1;1

B1: 15bp-GC promoter DNA (dsDNA)
DNA 1: GATTTTCACATGCAG
DNA 2: CCTGCATGTGAAAAT
In the case of B1, the binding result [1] is reported as “no binding”, the Kd [2] is reported as 749 nM and the binding result [3] is reported as “no binding”.

B2: 19bp-FAM promoter DNA (dsDNA)
DNA 1: GAATTTTCACATGCAGATC
DNA 2: GATCTGCATGTGAAAATTC
B2: binds ([4]; label: 5'-FAM on sense strand, blunt).

B3: Flanking mutant promoter DNA (dsDNA)
DNA 1: GAGGGTCACATGCAG
DNA 2: CTGCATGTGACCCTC
B3: binds [4].
